# Patent publication US7667100B2, “Nucleic acid compositions conferring herbicide resistance” (Dow AgroSciences LLC, priority 2002, dated 2010)
# Legend:
# [1] = test system: Nicotiana benthamiana; assay: Evaluation of auxin tolerance in greenhouse plants inoculated with clone transcript and sprayed with herbicide; format: in vivo; conditions: greenhouse; 30% or more of test population tolerant by 14 dat
# Procedure: All primary hit sequences were evaluated for tolerance in larger plants, maintained under greenhouse conditions as described below.
# Plant Growth and Maintenance. Nb seeds were sown in 6.5 cm pots filled with Redi-earth medium (The Scotts Company, Marysville, Ohio) pre-wetted by injection of Hoagland's fertilizer solution [all from the Scotts Company: 147 kg Peters Excel 15-15-15 Cal-Mag, 68 kg Peters Excel 15-0-0 Cal-Lite (15% Ca), and 45 kg Peters Excel 10-0-0 MagNitrate (10% Mg) in hot tap water to 596 L total volume] into irrigation water at a ratio of 200:1, using an injection system (H. E. Anderson, Muskogee Okla,). Seededpots were placed in the greenhouse for 1 day, transferred to a 27° C. germination chamber (Carolina Greenhouses, Kinston, N.C.) for 2 days, and then returned to the greenhouse. Shade curtains (33% transmittance) were used in the greenhouse to reduce solar intensity. To ensure 16 hour day length and supplement solar radiation on overcast days, artificial lighting consisting of a 1:1 mixture of metal halide and high pressure Sylvania sodium lamps was used, delivering approximately 220 μmol/m^2/s. Evaporative cooling and steam heat were used to maintain a daytime set point of 27° C. and a nighttime temperature of 22° C. At approximately 7 days post sowing (dps), seedlings were thinned to one seedling per pot and at 17 to 21 dps, the pots were spaced farther apart to accommodate plant growth. Plants were watered with Hoagland's solution as required. Following inoculation, waste irrigation water was collected and treated with 0.5% sodium hypochlorite for 10 minutes to neutralize any viral contamination before discharging into the municipal sewer.
# Plant Inoculation. For each clone, 50 test plants as well as 10 GFP and bar (Thompson et al., EMBO J. 6:2519 [19870]) negative control plants were inoculated as follows: 2.0 mL of inoculum per clone were prepared by combining equal volumes of NCAP transcript and FES buffer [0.1 M glycine, 0.06 M K2HPO4, 1% sodium pyrophosphate, 1% diatomaceous earth (Sigma Chemical Company, St. Louis, Mo.), and either 1% silicon carbide (Aldrich Chemical Company, Milwaukee, Wis.), or 1% Bentonite (Sigma Chemical Company, St. Louis, Mo.)]. The inoculum was applied to each plant at 17 days post sowing by pipetting onto the upper surface of leaves 3 and 4 (˜20 μL per leaf). The inoculum was then spread across each leaf surface using a 3″ cotton tipped applicator (Calapro Swab, Fisher Scientific, Pittsburgh, Pa.) and a gloved finger to support the leaf. Following inoculation the plants were misted with deionized water.
# Infection Scoring. At 8 days post inoculation (dpi), the plants were visually examined and a numerical score was assigned to each plant to indicate the extent of viral infection symptoms: 0=no infection, 1=possible infection, 2=infection symptoms limited to leaves <50-75% fully expanded, 3=typical systemic infection, 4=atypically severe infection, often accompanied by moderate to severe wilting and/or necrosis. Plants receiving an infection rating of 0, 1, or 4 were discarded.
# Herbicide spraying. At 9 dpi, the well infected plants (infection score of 3, sometimes 2) were divided into 3 treatment groups. Group 1, to be sprayed with solvent only, contained 4 plants per test clone (2 plants per negative control) and Groups 2 and 3, to be treated with 13 or 40 g ae/ha, respectively, each consisted of 12 test plants per clone and 2 plants per negative control. […]
# [2] = test system: Nicotiana benthamiana; assay: Cross-resistance testing against six auxin compounds (greenhouse); format: in vivo
# Description: Six compounds, representing five classes of auxin chemistry, were selected for testing the extent of auxinic tolerance of five hit sequences (129965 (SEQ ID NO:10), 130213 (SEQ ID NO: 14), 130294 (SEQ ID NO:360), 130994 (SEQ ID NO:361), and 129870 (SEQ ID NO:359)). The compounds included the following: • 1) quinclorac (BASF Corp., Research Triangle, N.C.) • 2) (2,4-dichlorophenoxy) acetic acid (Dow AgroSciences, Indianapolis, Ind.) • 3) dicamba (Monsanto, St. Louis, Mo.) • 4) benazolin (AgrEvo USA Company, Wilmington, Del.) • 5) picloram (Dow AgroSciences, Indianapolis, Ind.) • 6) 4-amino-3,6-dichloropyridine-2-carboxylic acid (Dow AgroSciences, Indianapolis, Ind.) Compound #6 served as a positive control, as these five sequences were identified for their herbicide tolerant function using this auxin (see Example 9). Compound #1 represents the quinoline carboxylic acid chemical family, #2 is in the phenoxy carboxylic acid class, #3 is benzoic acid chemistry, #4 is unique to any currently defined class, and #5 is in the same family as the positive control, pyridine carboxylic acids.
# The protocol was essentially the same as that described in Example 9 for greenhouse evaluations. However, an individual experiment consisted of 200 test plants plus 35 GFP and 35 bar negative control plants inoculated per clone. […] Two doses per auxin were tested, with as many as 12 well-infected test plants and 2 of each of the negative controls per dose.
# The six auxin solutions were prepared by dissolving solid compound in General Purpose Solvent (GPS: 97%DMSO: 3% acetone) to achieve the following spray rates (g ae/ha) when using the spray applicator and parameters outlined in Example 9: Compound #1) 200; 2) 42; 3) 64; 4) 200; 5) 10; 6) 10. From each of these solutions, a portion was diluted with an equal volume of GPS, resulting in 1× (“high dose”) and ½× (“low dose”) concentrations for spraying. Before spray application, each auxin solution was mixed with an equal volume of diluent containing surfactants for effective penetration. The diluent was prepared as follows: 420 mL GPS, 460 mL DI water, 120 mL isopropyl alcohol, 10.167 mL Agri-Dex (Helena Chemical Co., Memphis, Tenn.), and 0.167 mL Triton X-155 (Sigma Chemical Co., St. Louis, Mo.). In addition to the 200 and 100 g ae/ha rates tested for Compound #4 (benazolin), a concentration of 250 g ae/ha was also formulated as described above and tested.
# Plants were sprayed and evaluated as described in Example 9. FIG. 7 summarizes the sequences tested and the highest dose of the compounds against which tolerance was observed. […] Results are reported in FIG. 7 for each of the trials with each construct.
# The positive control (Compound #6) was formulated differently in this set of evaluations from that described in Example 9, for consistency in the solvent/surfactant background from which to compare the activity of the individual sequences against each auxin. Thus, the spray rate used for evaluation was lower than previous experiments, 5 vs. 13 g ae/ha. The need to lower the dose with this formulation to prevent total chlorosis and/or necrosis was likely due to the addition of DMSO, Agri-Dex, and Triton X-155 which were not used in Example 9.
molecule,measurement,setting,value
"129870: Poppy cDNA clone; auxin tolerance hit sequence (nucleic acid, Poppy) DNA: TTAATTAAGTCGACGAATTCAAATTAGGTCTAAAGATGGCGTCTTTAGCTCAACAATTCTCAGGATTAAGATGCCCACCACTTTCTTCTTCTCATCTAACAAAACCCTTTTCTTCAAAACCCCAGAAAACCACCTTTTCACCTATAGTTTCAGCAGCTGTCATTTCTAATGCACAAACTAAAGAAAGAAGTAGACTTAAAGAAATCTTCGAAGATGCTTATGAAAGATGTAGAACTACTCCAATGCAAGGTGTTGGTTTTACTGTTGATGATTTTCATGCTGCTCTTGAAAAGTATGATTACAATTCTGAGATTGGTACCAGGGTTAAAGGAACTGTGTTCTGTACAGACAACAACGGAGCATTAGTTGACATCACGGCGAAATCTTCAGCCTATTTACCAATCCAAGAGGCATGTATTCACAAAATAAAGCATGTAGAAGAAGCAGGAATAGTTGCAGGCCTACGTGAAGAGTTTGTGATTATTGGAGAGAACCAAGCTGATGATAGCTTGATCTTGAGTTTGCGTTCAATCCAATTTGACCTCGCATGGGAACGGTGTAGACAACTTCAGGCAGAGGATGTCGTCCTCAAGGGTAAGGTTGTTGGTGGAAACAAAGGCGGTGTGGTGGCAATTGTCGAAGGCCTTCGTGGTTTTATTCCATTCTCACAAATATCTTCAAAATCAACCGCGGAAGATCTCATTGATAAGGAGCTTCCTCTGAAATTTGTGGAAGTTGATGAGGAGCAGTCTAGACTTGTCCTCAGTAATCGCAAGGCCATGGCAGACAGCCAGGCACAGCTTGGTATTGGATCAGTTGTCACTGGAACAGTACAGAGTCTTAAGCCATATGGCGCTTTCATCGACATTGGTGGAATCAATGGTCTTCTTCATGTTAGTCAAATTAGTCATGATCGTGTCTCGGATATTGCAACAGTTCTTCAACCCGGCGACACTCTAAAGGTGATGATATTGAGCCACGACCGTGAGAGAGGCCGAGTCAGTCTATCCACCAAAAAGCTAGAGCCTACTCCAGGAGATATGATCCGTAACCCCAAGCTTGTTTTCGAGAAGGCTGAAGAAATGGCTCAGACATTCAGGCAGAGAATAGCTCAAGCAGAAGCTATGGCCCGTGCGGACATGCTGAGATTCCAACCCGAGAGTGGATTGACTCTAAGCTCAGACGGCATCTTAGGTCCCCTGACGCCAGACTTGCCTGCTGAAGGTCTAGATTTGAGCGACATTCCTGCAGCTGATGATGCATAGAAACCAATAAATATGAATTAAATCTGTCTTGACGTTTCTTCTCATCACCATTTTTAGGCTATGTAAGATGGGTCTATAGGTTGTTCAAAGTGTTGACTTGTGTATTTATCTTGATAGTTCAAAGTGTACTTCTTTAAGCGATAATCATTGAAAAGAAAAAATGGAGAAGGTAAAAGATAAAAATATCCAAAAAAAAAAAAAAAAAAAAAAAA",reproducibility of auxin tolerance from Trial #1 to Trial #2,[1],reproducible auxin tolerance
same,tolerance to picloram (Compound #5),[2]; 10 g ae/ha and 1/2x,demonstrated tolerance to each of the three compounds using the 35% injury threshold
same,"tolerance to positive control 4-amino-3,6-dichloropyridine-2-carboxylic acid (Compound #6)",[2]; 10 g ae/ha and 1/2x (5 g ae/ha),tolerance consistently occurred at the lower threshold (25% injury or less)
same,tolerance to dicamba (Compound #3),[2]; 64 g ae/ha and 1/2x,demonstrated tolerance to each of the three compounds using the 35% injury threshold
same,tolerance to quinclorac (Compound #1),[2]; 200 g ae/ha and 1/2x,demonstrated tolerance to each of the three compounds using the 35% injury threshold
same,extent of cross-resistance to the six auxin compounds,"[2]; two trials, two doses per auxin, thresholds 25% or 35% injury or less",tolerance was observed against four compounds
